{
  "source": "the DeepSol protein solubility set",
  "data": [
    {"test": "soluble on expression in E. coli; label from the status in PepcDB or PDB records", "values": [
      {"sequence": "MNRARDWLEQARHNLRHAQGSLGLGDYAWACFAAQQAAEAALKGLHLARGQVAWGHSILDLLADLPEDVDVPEDLVEAAKVLDKYYIPTRYPDAHPAGPAARHYTRLEAEEALDLAQKILAFVEEKL", "soluble on expression in E. coli": "soluble"},
      {"sequence": "PKPLVILAHEIYGVNSHMKKMGRLIKMAGYDVLTPNLLGEDEVYTLKEEKTAYEQFTKHERLKTGETIIQPVIRQNAGRHIFVIGFSVGATIAWKCSSMPEVSGSVCYYGSRIRDSLHHMPACPVLLFFPNYEPSFDVALLIKKLREKQHTHLEIYQFDALHASP", "soluble on expression in E. coli": "not soluble"},
      {"sequence": "MAANKPKGQNSLALHKVIMVGSGGVGKSALTLQFMYDEFVEDYEPTKADSYRKKVVLDGEEVQIDILDTAGQEDYAAIRDNYFRSGEGFLCVFSITEMESFAATADFREQILRVKEDENVPFLLVGNKSDLEDKRQVSVEEAKNRAEQWNVNYVETSAKTRANVDKVFFDLMREIRARKMEDSKEKNGKKKRKSLAKRIRERCCIL", "soluble on expression in E. coli": "soluble"},
      {"sequence": "MNIYAFDFDEIESQEDFYRDFSQTFGLAKDKVRDLDSLWDVLMNDVLPLPLEIEFVHLGEKTRRRFGALILLFDEAEEELEGHLRFNVRH", "soluble on expression in E. coli": "not soluble"},
      {"sequence": "KREPALNPNEYKKFMLREKQIINHNTRLFRFNLHHPEDVVGLPIGQHMSVKATVDGKEIYRPYTPVSSDDEKGYFDLIIKVYEKGQMSQYIDHLNPGDFLQVRGPKGQFDYKPNMVKEMGMIAGGTGITPMLQVARAIIKNPKEKTIINLIFANVNEDDILLRTELDDMAKKYSNFKVYYVLNNPPAGWTGGVGFVSADMIKQHFSPPSSDIKVMMCGPPMMNKAMQGHLETLGYTPEQWFIF", "soluble on expression in E. coli": "soluble"},
      {"sequence": "ELIRVGVVGTGYMGENHVRIYSEMEDVRLIGISDPNSSRVKELAARYETLPFSDHKKMFGKTNLDAISIAAPTTLHCPIVLDALEAGVDVLVEKPIADSVENATAMIESAEEMDRHLMVGHIERFNPAVLKLKEVVDSGVLGKIVSV", "soluble on expression in E. coli": "not soluble"},
      {"sequence": "MSLGMDEKSVAIVFPHHLLEDHPAAGKTSGFILVEDQLFFGDPVFGLRFHKNKLVLHRASMRYYHDHLKSRGLKAEYIQYSPDPHMGYLRDHLEGYDRVYTLELLDHELEARMKKLSMELGLEITEIEAPFIFRRNLMDGYFRDGRFLLRSFYIRERKRLSILMENSRPAGGKWTFDTENRKRMPPDLQVPAPVKLPENEYVQEAKEYVSEKFPDNPGSMDRFNYPEGHHHHHH", "soluble on expression in E. coli": "soluble"},
      {"sequence": "MGSDKIHHHHHHMKGSTDLESRLPSAGAYGDRFASYFKLAKASVFKTGSLRTGEIAYTETSGYCHKPEPSVPVPPEDAFLVQTQLQDYPNHISWEDGRPGIVGTLRAGHTILRDLQRKPNAIIMGPHHTVHFYIPRATFNTVAEDLEARSISELAYVPAQPIDDDVIRGLIGTVRAAIKAPEETNRLFLDHLMMAAAVHLAQTYGGLKPRSLQHRGGLAPWQARLAIELLEGDLTGQLPLKDVAAACKLSVSYFSKAFCKTTGLAPHQWLLYRRVERAKSAMINEKTTLAEVALSCGFSDQSHFTRVFVRLVGTSPATWRRARNL", "soluble on expression in E. coli": "not soluble"},
      {"sequence": "MTGTGILARPERNHYFSLALAFCSWVRNGYGVFRYSDKELLFLASINGQPAVMADLSGNDADVAQKVSLFLTMNEEPPEKWQVVSPLEHPDNWESIITRLSSADLRRCKLTVGNRSKFTLPAVLFLVAASAGTVFWMTQPEPDVVPTPEEIAARARLQFKKPDPPPELPHPWASQPVISDFLKACADLRKPSPVALEGWKLTGGTCTPETFTLIYERQPGGTIEGFLARSKEIFNVIPDFNLKDGARLASVTRPLPSLPRRDEAVPTPSEQLMRVFTWFQKKQLTPAINEIAIPEPLPGNDGEPAPVQKWKEYQFSLSTPVNPDELFPLFQDTGVRLSNIHFELNGGTFSYSSEGHIYASRLEHHHHHH", "soluble on expression in E. coli": "not soluble"},
      {"sequence": "MAHHHHHHMMRLSRLGVTAAAAAPSSFPLLQQLRGVRYANIQETLKPIPGQTAGQISILNEICCNPDAEEERRKPVFRAEVMPDAAAAAEEDNYLHTMHKWGYDSLTLFKKTNEDPGPWWNANASTLASNWSQVGDYANAGMWSGVWRYTYGIGEYNLRPYELRGRAWGRKDPKTGAVMIRYGKRSTSKPVQRLCFPHTKEHEQHHRIKNPANKDVKEISALHGKRILRELQYHLGQGLRFYLVDGVFGSDPGTATPYRIITDTPTHAYFASMAAIRTFNYVARQEVTLVKRLSQSPIDEWGWRRPGVLIYHAPSYDFESPRIVEEFGGPRPKDMGLSHNRFIATEPYSIPMKCAMGGEPSCDALLDSTAMLCGRWGFYADEKGYLTVPGESIMSKDGRSLTLVITGDEADADALRTSPQLYGSRHHRIANGVVSRAWDVVSMPACATGAKPLPTDIVEQDLQRVQRSLPTRMGLPHTLSHRHHGRRHVSEYGFKWPHNYTEDVSTKAYAGGHLFKAPKTDKLAGHQPRPSRFLMKDVDVVVIGEGVDAAAAVVSTLKDRGMLYAEEAPLKEAMATALKAAKSVKVVPRASSKVVLGKLTHV", "soluble on expression in E. coli": "not soluble"},
      {"sequence": "MDMTYNMRNAMASSRNMEEPQYDMSTIDLTQNSMNTNYLMNGSVLTNAYNNDYIVNNRDKYTGDMISQLKIDQGIPTYSHTLPMNGTTLADTNDSLNIQGMMRTNMDTTGFDGYSHIMNYNNTQNTIQTNPITYRMEDYNNLNNDVMYINPTTGEKFSAEYVNNIPTNDSDNMLYSNNFKNNSINMNTLLNSHYNNLPYPMPIYESMNNPQMYMQHMNQKQTVNIPLQHGEKKSAARNISTVNKRRIKTKKFFPCC", "soluble on expression in E. coli": "not soluble"},
      {"sequence": "MTRQGWLVPCLSHGKDDQLQDELSELSKAYRKKFQTDLHTKSGDIIDPSGEFLYVYLDEENYRICRQSMVLVSNAPDGLIATTLEPYSDSYTFRQVREQLQAFSGDGGRINYSRNEHSSSYFLTIQASNEFKHVGAVRNTFGQSKDIWKRRMPDASQPLDYHLIAVGCSAFLPEAALDDVESDGAVLEHHHHHH", "soluble on expression in E. coli": "not soluble"},
      {"sequence": "MGSDKIHHHHHHMYEKYIVEGLSDREIAYLIGCGKATVVRARQKHGIYREDVKMCDDYTLDNISEDLRTFIDGLLLGDACITEKGNLLITQNKRYDWLEYVKHRFQQFGLNVYFHCYKYKRRTSEVIADLYVLSTSRYELFRQLRERWYPDGIKRIPNDLVINDEGLAQWYLGDGSLTKQKNGYKLELSTHGFTLDENKFLQQKLKLLYGFDFRISKKHQYRYLRLFKSKQVHAFCSIVEPFIPPSYRNKVRCLHDYQWLKSWDVI", "soluble on expression in E. coli": "not soluble"},
      {"sequence": "STGKKPKHHVLSHDIIPASKPIAEKLQIQPESPVVELKRILYNDDQPLTFEVTHYPLDLFPGIDTFIADGVSMHDILKQQYKVVPTHNTKLLNVVYAQQEESKYLDCDIGDALFEIDKTAFTSNDQPIYCSLFLMHTNRVTFTINSPYT", "soluble on expression in E. coli": "soluble"},
      {"sequence": "MTTRCPWVGEQSIYIDYHDKEWGKPEFDSQKLFEKICLEGQQAGLSWITVLKKRESYREAFHQFDPKKIAKMTALDIDACMQNSGLIRHRAKLEAIVKNAKAYLAMEKCGENFSDFIWSFVNHKPIVNDVPDLRSVPTKTEVSKALSKALKKRGFVFIGETTCYAFMQSMGLVDDHLNDCPCKTSLEHHHHHH", "soluble on expression in E. coli": "soluble"},
      {"sequence": "MTLPTTIYSFPAYLSRFSSTDKPVKLKFHQYARATLLSNRGRDHNCDGRRTVEIHKLDLSDWQAFNKLATRCNAYDGITMNGDNSFGWNHEATLDNIHAQKYNKAYAGARLTAELKYLLQDVESFEPNSKYTIHEVVLGPGYGTPDYTGQTIGYVVTLPAQMPNCWSSELPTIDLYIDQLRTVTGVSNALGFIIAALLNAYSDLPHDLKIGLRSLSSSAAIYSGLGFERVPQERDISCARMYLTPANHPDLWTQENGEWIYLRN", "soluble on expression in E. coli": "not soluble"},
      {"sequence": "MAGDPMSIPFFSFSWAVMSNLTYLQGYPEQLLSQVRTLINEQRLGDVLAKRYPGTHDYATDKALWQYTQDLKNQFLRNAPPINKVMYDNKIHVLKNALGLHTAVSRVQGSKLKAKAEIRVATVFRNAPEPFLRMIVVHELAHLKEKEHNKAFYQLCCHMEPQYHQLEFDTRLWLTQLSLGQDKILEHHHHHH", "soluble on expression in E. coli": "not soluble"},
      {"sequence": "MGSDKIHHHHHHMKKFYDEMHASGDKVREHYAGYERWLAQQPHESMKGHRDEAEMIFRRVGITFAVYGAKDEDGSGTERLIPFDLIPRIIPAQEWREMEKGLRQRVNALNRFIHDVYHDQEIIKAGIVPGEQVFKNAQFRPEMMGVDVPGNVYSQIAGIDIVRAANPDGSGNYYVLEDNLRVPSGVSYMLENRKMMMRLFPELFSSHRVAPVAHYPDLLLDTLRAVAPPGVAEPTVVVMTPGMYNSAYFEHAFLAQQMGVELVEGQDLFVKDNYLYMRTTQGPRRVDVIYRRIDDDFLDPKAFRADSTIGCAGLLSVYRAGNVNLCNAIGTGVADDKSIYPYVPKMIEFYLGEKPILNNVPTYLCRESEDLQYVLAHLGELVVKEVHGAGGYGMLVGPAASKAEIEEFRTQLVANPSNYIAQPTLALSTCPTFVESGIAPRHIDLRPFVLSGKTVQMVPGGLTRVALKEGSLVVNSSQGGGTKDTWMLEA", "soluble on expression in E. coli": "not soluble"},
      {"sequence": "RKIFTNKCERAGCRQREMMKLTCERCSRNFCIKHRHPLDHDCSGEGHPTS", "soluble on expression in E. coli": "soluble"},
      {"sequence": "MGSDKIHHHHHHMIHKRSNSPNMKPIIEIKNLAAGYDGRTVLHDVNLNVYERDFLGIIGPNGGGKTTLIKCILGLLKPTAGEINFHAPTEASSHSQLSTSNLPLSLGYLPQYSTIDRKFPISVEEVILSGLSIQKSLTSRFTPEQREKGKHIIARMGLEGLEHRSIGQLSGGQLQRALLGRAIISDPSVLILDEPSTYIDKRFEARLYELLAEINKECAIILVSHDIGTVLQQVKSIACVNETLDYHPDTGVSTEWLERNFNCPIELLGHGTLPHRVLGEHHHHH", "soluble on expression in E. coli": "not soluble"},
      {"sequence": "MSLAADYTEQDAMRVQAVKTYIDNVLQEGRSQIKTTPLLADGINTTTRKPVEWIYPDGRTATISNFANQQNFLRALTAMSVVTEDQRYQLEAVRITRYFMDNFIADNGLFYWGGHRFVNLDTLELEGPQNKNSVHELKNHYPYYPFLYHVDPHATERYIKAFWQAHVEDWQSLDMGRHGSYSKNYDDKVFHRPIPASLVDQSKLPIMPETKGLTFINAGSDLIYAAYQLDWLAPSANAQGSAAWGQYLMTQYKLAKHPKTGAPVYQFTSPKKREWPPQSDKDTNSKYGDRAARQFGPELGNIAREGNVLFKSNDKSIVFNNALIELHLAEQRNDAAIREQVVDALLNFYRLAYNPENGTIKPIFSDGTSIEGIPLARDGYYGPKGRVFNAHKPKTEEYLLPILRAYRLQADPELWQLAANMTHHYGWGSLGNDAKAKPTLNMQLSSVSPMTLFSAIELYQITQQPEYLEFARAAADKLVEKRFVRGYFLANPRYLNASIDAIEPLALLTLDATLKGKTAQVAPYLSGSGYIHGEFAGKENAYDTNEIYKQTREGHHHHHH", "soluble on expression in E. coli": "soluble"},
      {"sequence": "MLCCPDPRRRGQHNNRRRNAMPKLHESRIHDLRPTQLTVGMIEVQAKKTHLAAMAPADQQAFMQAHPIPAVLGPGGQLYITDHHHLGRAALDAGVITGYFMVEADLSQHSLDDFWKAMDQNLWVHPLDEHGVRHYYASIPKHLEKLVDDPYRSLAGYVRDAGGYDKTPTAFAEFVWADFFRRSIPIEDLLADFQAAVHAALPLAKSKFAKALPGYNGKLEHHHHHH", "soluble on expression in E. coli": "not soluble"},
      {"sequence": "MAHHHHHHMAYGDDSKIVEGIVGERNIYKRREESTETNPFQSKHKKRLLFVLDVSASMYRFEGMDHRLSKLLESTVMVMEAFAGFEEKIDYAMVGHNGDSACIELVSFGHSPANQKARMEVCQRMVAHAQYCWSGDNTVEAMRQSIDLVTAEKGDAYLVFVISDANLPRYGIQPSELSAIMRSHKEVQMFCIFIATLGEQASNLQAEMPPGHGFECLDTQALPHILKQIFFSVNLL", "soluble on expression in E. coli": "not soluble"},
      {"sequence": "MGHHHHHHSHMERIVMPANYVHTRTTPFWTKETAPASIWRRHLDAGTRQGVYPRLCVMQGTIRYYGYADETSPEPVETLTIEAGQFGVFPPEKWHRIEALSDDTLFNVDFYVDPKILIEG", "soluble on expression in E. coli": "soluble"}
    ]}
  ]
}
